Patent US20040121410A1, “Pain signaling molecules” (priority 2002, published 2004)

Columns and labels:
[1] = biological target: MrgC11-GFP (mouse) [GFP: P42212]; test: cell-based or functional assay
[2] = biological target: MrgA1-GFP (mouse) (UniProt Q91WW5); test: cell-based or functional assay

Row | Substance | EC50 of calcium mobilization (FLEXstation assay) [1] [nM] | EC50 of calcium mobilization (FLEXstation assay) [2] [nM] | also measured
1 | F-M-R-(D)Fa (peptide) |  |  | EC50 of calcium mobilization (HEK-MrgA1 cells) [2]: 643 nM
2 | FLRF-amide (peptide) | 157 | 402 | internalization of the receptor-GFP fusion (confocal microscopy, 3 µM FLRFa, 30 min, 37° C.) [2]: > 90 % of cells
3 | Met-Enk-RF (peptide) | 545 |  | fold change of agonist activity against the amidated peptide [1]: 4 to 5 fold
4 | BAM3200 (peptide) | 300 | > 10000 | 
5 | AF-2 (peptide) | 130 |  | 
6 | RFRP-1 (peptide) | 1240 |  | 
7 | F-(D)M-R-Fa (peptide) |  |  | EC50 of calcium mobilization (HEK-MrgA1 cells) [2]: 1260 nM; fold decrease in fold change of agonist activity against FMRFa [2]: 3 fold; EC50 of calcium mobilization (HEK-MrgC11 cells) [1]: 11 nM; fold change of agonist activity against FMRFa [1]: 10 fold
8 | Kiss(112-121) (peptide) | 50 |  | 
9 | (D)F-M-R-Fa (peptide) |  |  | EC50 of calcium mobilization (HEK-MrgA1 cells) [2]: 882 nM; EC50 of calcium mobilization (HEK-MrgC11 cells) [1]: 108 nM
10 | BAM-22P (peptide) | 26 | 2540 | 
11 | PQRF-amide (peptide) | 126 | > 10000 | 
12 | R-F-OH (peptide) |  |  | EC50 of calcium mobilization (HEK-MrgC11 cells) [1]: 632 nM
13 | FMRF-OH (peptide) | 544 | 8200 | fold decrease in fold change of agonist activity against FMRFa [2]: 20 fold; fold change of agonist activity against the amidated peptide [1]: 4 to 5 fold
14 | BAM-15-amide (peptide) | 479 | 8770 | fold change of agonist activity against BAM-15 [2]: 2.7 fold; fold change of agonist activity against BAM-15 [1]: 9 fold
15 | NPFF (peptide) | 54 | 2140 | 
16 | Dynnorphin-14 (peptide) | 22 |  | 
17 | R-Fa (peptide) |  |  | EC50 of calcium mobilization (HEK-MrgC11 cells) [1]: 460 nM

More lines, main results first:

Row | EC50 of calcium mobilization (FLEXstation assay) [1] [nM] | EC50 of calcium mobilization (FLEXstation assay) [2] [nM] | Substance | also measured
18 | 144 |  | PrRP-20 (peptide) | 
19 | 282 |  | NPAF (peptide) | 
20 | 114 | 420 | FMRF-amide (peptide) | EC50 of calcium mobilization (HEK-MrgA1 cells) [2]: 420 nM; EC50 of calcium mobilization (HEK-MrgC11 cells) [1]: 114 nM
21 | 53 | 23300 | BAM-15 (peptide) | 
22 | 133 | 5250 | Met-ENK-RFamide (peptide) | 
23 | 17 |  | γ1-MSH (peptide) | 
24 | 113 |  | RFRP-3 (peptide) | 
25 | 102 |  | Kiss(107-121) (peptide) | 
26 | 16 |  | AnthoRF-amide (peptide) | 
27 | 11 |  | γ2-MSH (peptide) | internalization of the receptor-GFP fusion (confocal microscopy, 1 µM γ2-MSH, 30 min, 37° C.) [1]: > 90 % of cells
